For six substances, blocking of viral entry: % GFP-positive DF-1 cells (FACS) after incubation with the gp85 protein and infection with RCASBP (A)-EGFP; Tva on DF-1 cells (Figure 6C) (% GFP-positive cells) and ratio to parent results are on record in publication PMC9095613.

The target in one assay is Tva-HA-Fc. Nature of the assay: co-IP. To be noted: parent: est. 1.0; read off a plot.

For the substance “A-gp85-flag wt (soluble gp85 of ALV-A RSA) (natural protein)”, the blocking of viral entry: % GFP-positive DF-1 cells (FACS) after incubation with the gp85 protein and infection with RCASBP (A)-EGFP; Tva on DF-1 cells (Figure 6C) (% GFP-positive cells) in the assay with Tva-HA-Fc (chicken) stood at 0.21. Take “A-gp85-flag wt (soluble gp85 of ALV-A RSA) -139S”: the ratio to parent in the assay with Tva-HA-Fc stood at 0.73. As for “A-gp85-flag wt (soluble gp85 of ALV-A RSA) -155PWVNPF”, in the assay with Tva-HA-Fc, the ratio to parent was found to be 0.07. Regarding “A-gp85-flag wt (soluble gp85 of ALV-A RSA) -201NFD”, in the assay with Tva-HA-Fc, the ratio to parent is 0.8.

For “A-gp85-flag wt (soluble gp85 of ALV-A RSA) -266S”, in the assay with Tva-HA-Fc, the ratio to parent was 0.43. For the substance “E-gp85-flag wt (soluble gp85 of ALV-E ev-1) (natural protein)”, the blocking of viral entry: % GFP-positive DF-1 cells (FACS) after incubation with the gp85 protein and infection with RCASBP (A)-EGFP; Tva on DF-1 cells (Figure 6C) (% GFP-positive cells) in the assay with Tva-HA-Fc (chicken) amounted to 31.
